Laboratory results from patent publication US20090203706A1, “LYSINE-BASED POLYMERIC LINKERS” (priority 2006, published 2009).

Assay: Rate of hydrolysis of PEG prodrugs in rat plasma (HPLC)
Format: in vitro ADME
Settings: 37° C., disappearance of PEG derivative
Method: The rates of hydrolysis were obtained by employing a C8 reversed phase column (Zorbax® SB-C8) using a gradient mobile phase made of (a) 0.1 M triethylammonium acetate buffer and (b) acetonitrile. A flow rate of 1 mL/min was used, and chromatograms were monitored using a UV detector. For hydrolysis in buffer, PEG derivatives were dissolved in 0.1 M pH 7.4 PBS at a concentration of 5 mg/mL, while for hydrolysis in plasma, the derivatives were dissolved in distilled water at a concentration of 20 mg/100 μL and 900 μL of rat plasma was added to this solution. The mixture was vortexed for 2 min and divided into 2 mL glass vials with 100 μL of the aliquot per each vial. The solutions were incubated at 37° C. for various periods of time. A mixture of methanol-acetonitrile (1:1, v/v, 400 μL) was added to a vial at the proper interval and the mixture was vortexed for 1 min, followed by filtration through […] filter membrane (optionally followed by a second filtration through […] filter membrane). An aliquot of 20 μL of the filtrate was injected into the HPLC. On the basis of the peak area, the amounts of native compound and PEG derivative were estimated, and the half-life of each compound in different media was calculated using linear regression analysis from the disappearance of PEG derivative.

PEG-[Lys (DGA-SCH AF)2]2 [Compound 12a]
t1/2α of hydrolysis: 5 h
t1/2β of hydrolysis: 15 h
